According to paper PMC5976746:

Experiments:
[1] = target: BG505 NFL (native flexibly linked) HIV-1 envelope glycoprotein trimer from 293F cells (HIV-1); assay: SEC; Superdex 200 (S200) after lectin-affinity column; UV absorbance at 280 nm
[2] = target: BG505 NFL (native flexibly linked) HIV-1 envelope glycoprotein trimer from CHO-M cells (HIV-1); assay: as above
[3] = target: BG505 NFL (native flexibly linked) HIV-1 envelope glycoprotein trimer from CHO-M cells (HIV-1); assay: native gel or EMSA; blue-native PAGE of SEC fractions (F4-F9) of lectin-purified pool Z supernatant
[4] = target: BG505 NFL (native flexibly linked) HIV-1 envelope glycoprotein trimer from CHO-M cells (HIV-1); assay: negative-stain electron microscopy; peak SEC fraction from pool Z; 2% uranyl formate, 2D class averages

Substance	stoichiometry N [1]	stoichiometry N [2]	stoichiometry N [3]	stoichiometry N [4]
BG505 NFL (native flexibly linked) HIV-1 envelope glycoprotein trimer from 293F cells	3	–	–	–
BG505 NFL (native flexibly linked) HIV-1 envelope glycoprotein trimer from CHO-M cells	–	3	3	3
